The data set in a line: soluble on expression in E. coli; label from the status in PepcDB or PDB records.
For “MISKGFSTQTERINILKAQILNAKPCVESERAILITESFKQTEGQPAILRRALALKHILENIPITIRDQELIVGSLTKEPRSSQVFPEFSNKWLQDELDRLNKRTGDAFQISEESKEKLKDVFEYWNGKTTSELATSYMTEETREAVNCDVFTVGNYYYNGVGHVSVDYGKVLRVGFNGIINEAKEQLEKNRSIDPDFIKKEKFLNSVIISCEAAITYVNRYAKKAKEIADNTSDAKRKAELNEIAKICSKVSGEGAKSFYEACQLFWFIHAIINIESNGHSISPARFDQYMYPYYENDKNITDKFAQELIDCIWIKLNDINKVRDEISTKHFGGYPMYQNLIVGGQNSEGKDATNKVSYMALEAAVHVKLPQPSLSVRIWNKTPDEFLLRAAELTREGLGLPAYYNDEVIIPALVSRGLTLEDARDYGIIGCVEPQKPGKTEGWHDSAFFNLARIVELTINSGFDKNKQIGPKTQNFEEMKSFDEFMKAYKAQMEYFVKHMCCADNCIDIAHAERAPLPFLSSMVDNCIGKGKSLQDGGAEYNFSGPQGVGVANIGDSLVAVKKIVFDENKITPSELKKTLNNDFKNSEEIQALLKNAPKFGNDIDEVDNLAREGALVYCREVNKYTNPRGGNFQPGLYPSSINVYFGSLTGATPDGRKSGQPLADGVSPSRGCDVSGPTAACNSVSKLDHFIASNGTLFNQKFHPSALKGDNGLMNLSSLIRSYFDQKGFHVQFNVIDKKILLAAQKNPEKYQDLIVRVAGYSAQFISLDKSIQNDIIARTEHVM”, the “soluble on expression in E. coli” value was “soluble”.
For “MNILQFNVRLAEGGAAGVALDLHQRALQQGLASHFVYGYGKGGKESVSHQNYPQVIKHTPRMTAMANIALFRLFNRDLFGNFNELYRTITRTAGPVVLHFHVLHSYWLNLKSVVRFCEKVKNHKPDVTLVWTLHDHWSVTGRCAFTDGCEGWKTGCQKCPTLNNYPPVKIDRAHQLVAGKRQLFREMLALGCQFISPSQHVADAFNSLYGPGRCRIINNGIDMATEAILADLPPVRETQGKPKIAVVAHDLRYDGKTNQQLVREMMALGDKIELHTFGKFSPFTAGNVVNHGFETDKRKLMSALNQMDALVFSSRVDNYPLILCEALSIGVPVIATHSDAAREVLQKSGGKTVSEEEVLQLVQLSKPEIAQAIFGTTLAEFSQRSRAAYSGQQMLEEYVNFYQNL”, the “soluble on expression in E. coli” value is “soluble”.
For “SASFQRKGLQARILSTEEEEKLKRDQALVSAFKQQKLEKEAQKNWDLFYKRNSTNFFKDRHWTTREFEELRSCREYEGQKLTLLEAGCGVGNCLFPLLEEDLNLFAYACDFSPRAVDYVKQHPLYNAERCKVFQCDLTRDDLLDHVPPESVDAVTLIFVLSAVHPEKMRLVLLNVYKVLKPGRSVLFRDYGLNDHAMLRFKAGSKLGENFYVRQDGTRSYFFTDEFLAQLFVDAGYEEVVNEYVFRETVNKKEGLCVPRVFLQSKFRKPPKDPAPTSDSASL”, the “soluble on expression in E. coli” value is on record as “soluble”.
Take “MNSAPKLNTFQHLIGEHQTFLEAKRIAKQFSLSELPVLITGKIGTGKNHFAHAIHLESSRSNEPFISVNCSTHSEETLIHELFGPNGNTGVFQKAVRGTLFLDDVWRMPASVQAQLLKALDSDTEKPRMICASADRSVEHTFRQDLFYRLNILTLTLPELSERKSDIPLLTQHFLSNSGQQLLIDPSVFPVLEKHAFEGNVRELKNAADYMAAVSSGGTIQPYDLPPYIRGTIDGKTSKKKAKLLTLMEKAEFLFILETIKVLNEKGEPASRRIISEHSKNTQTSLTPQQVRSRLDYLEKKDYVTKSRGRAGTKITFEGLSFIETLKNQMILEHHHHHH”: the “soluble on expression in E. coli” value is given as “soluble”.
“GSHMASMTGGQQMGRGSNNGDICIKDSINTLWTGINPPPNCQIVENTNTNDGKLTLVLVKNGGLVNGYVSLVGVSDTVNQMFTQKTANIQLRLYFDSSGNLLTEESDLKIPLKNKSSTATSETVASSKAFMPSTTAYPFNTTTRDSENYIHGICYYMTSYDRSLFPLNISIMLNSRMISSNVAYAIQFEWNLNASESPESNIATLTTSPFFFSYITEDDN”: the “soluble on expression in E. coli” value was “soluble”.
Consider “MEGVVRLEVPTPEEGFVNITRKVEAALSGHTGLVYLFVPHTTCGLTVQEGADPTVAQDLLGRLAELAPRHRPQDRHLEGNSHAHLKSLLTGVHLLLLAEKGRLRLGRWQQVFLAEFDGPRVREVWVRLL”, for which the “soluble on expression in E. coli” value was “soluble”.
For “MLTQEHINIIKSTIPLLESAGPALTQHFYQRMFSHNPELKHIFNMTHQKTGRQSVALFEAIAAYAKHIDNLAALTSAVERIAHKHTSFNIQPEHYQIVGHHLLETLRELAPDAFTQPVEEAWTAAYFFLAQVFIDREGALYLERKQALGGWRDGRTFVVREKQVESAYVTSFVLVPADGGAVLDYQPGQYIGIEVTPEGSDYREIRQYSLSHASNGREYRISVKREGVGSDNPGLVSHYLHNNVKVGDSVKLYAPAGDFFYVERERPVVLISAGVGATPMQAILHTLAKQNKSGVTYLYACNSAKEHTFAQETAQLIAQQGWMQQVWYRDESADDVLQGEMQLAELILPIEDGDFYLCGPIGFMQYVVKQLLALGVDKARIHYEVFGPHAQLAA” the value was “not soluble”.
Regarding “MLVLIRVFNTLGRRKEVFNPYSPPLVGMYVCGPTVYDYTHIGHARTFTVFDAIKRYLRLRGYDVFHVQNITDIDDKIINRAREEGRDWREIVREYSRDYLEGLGSLGIQIDHHPRVTDHISDIIRFIEGLIEKGYAYVAESGSVYFEVDKYPGYGMLSGHLSKEAWRQEEDVLHEKKSPYDFALWKAAKPGEPSWESPWGRGRPGWHIECSVMSSRYLGSRIDIHGGGVDLVFPHHENERAQSESYFGHRWVRYWLHASYLTIKGEKMSKSLGNIIPLREALREWGPGPLRLWLLSSHYRSNLDYSEEALGQYRRLYERLRQAADSIGRRLERAEPKGRLGEGELETVERLKGVVRRWHEAMSDDFNMGKAMSSLWEFTTIYFREVEQTESYTLLWLSWRILTGFNSVYAFAPDIVEARRPERSLEDSLVQALVDVRSELRRRKMYDLADEIRSRLAQLGFVLHDKGEKTEWRRR”, the “soluble on expression in E. coli” value is “soluble”.
With “MGSDKIHHHHHHMIVLIGGEKGGSGKSCLAQNIAVFLTTECGASVIMVDCDPQRTTSDWIQARNNNPKLASINCVQLYGKIRNDLLSLEQHYDFVIVDCGGQDNLALRATMSVASHILMPLRPKRRDLKTVSHMDDIVATCKMINPKLHASFVITQCPNLPNQANRILEAKEICKTYDINVLDSITYSRNIYDDSEESGLSVLEIEPKGKAAAEIRAIACEMFQVDCAASLTALLKPSTSIAGHHSQINQNQSNHLRGQYGTQRPQEKRYAI”, the “soluble on expression in E. coli” value is “not soluble”.
For “MQNVLIVGVGFMGGSFAKSLRRSGFKGKIYGYDINPESISKAVDLGIIDEGTTSIAKVEDFSPDFVMLSSPVRTFREIAKKLSYILSEDATVTDQGSVKGKLVYDLENILGKRFVGGHPIAGTEKSGVEYSLDNLYEGKKVILTPTKKTDKKRLKLVKRVWEDVGGVVEYMSPELHDYVFGVVSHLPHAVAFALVDTLIHMSTPEVDLFKYPGGGFKDFTRIAKSDPIMWRDIFLENKENVMKAIEGFEKSLNHLKELIVREAEEELVEYLKEVKIKRMEI”, the “soluble on expression in E. coli” value was “soluble”.
In the case of “MRQRSSYPKPFKAQVVQECLQPGATVSSVAINHGINANVIRKWLPLYRDLPAAASLPAFVPLKAAPKRPVEASVIIELPVAGQVITVKWPASDPEGCAQFIRAFAQLEHHHHHH”, the “soluble on expression in E. coli” value was “not soluble”.
On to “MEMSSNNKPVAGAEIKVAGASPTDSDQEGRFILNFTASLPGDPLMINDIYKKGFKIVNYEKVANWNISSASELKIVLGRTEVINALRKKYYDIGESNSEKEYRKTLAELEELKKQNALSAVEYDQKVDSMSKSMMEWQKRLEIYALKFACINRDELDAMEKQAMELLDHGDVHGAIRLYEEMKLDSTMTLKIAVRQEAKEDMKLLLPSLVNNFQLLKQADDKVACDSVAHLIYEMAADIKLKLMSVEWFFQRNDPSEVLDQYSLIVKDTQSMQEIELVENSLQQSLKEVKLKGELKKKAQLVFERIEDRKKWISIKEKI”, for which the “soluble on expression in E. coli” value was “not soluble”.

These data come from the DeepSol protein solubility set.
